Laboratory results taken from patent publication US20240132579A1 (DOTBIO PTE, published 2024).

T1: Human VEGF-121 (Acro Biosystems) (human, UniProt P15692 207-395)
T1 construct: Bought protein; also called human VEGFA
T1 sequence: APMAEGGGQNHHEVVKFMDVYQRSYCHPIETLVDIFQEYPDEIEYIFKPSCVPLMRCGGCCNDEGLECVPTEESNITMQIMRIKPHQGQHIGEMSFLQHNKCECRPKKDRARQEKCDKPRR

T2: biotinylated murine VEGF-164 (Acro Biosystem) (mouse, UniProt Q00731-2 27-190, biotinylated (site not stated))
T2 construct: also called Mouse VEGF164; murine VEGFA
T2 sequence (looked up): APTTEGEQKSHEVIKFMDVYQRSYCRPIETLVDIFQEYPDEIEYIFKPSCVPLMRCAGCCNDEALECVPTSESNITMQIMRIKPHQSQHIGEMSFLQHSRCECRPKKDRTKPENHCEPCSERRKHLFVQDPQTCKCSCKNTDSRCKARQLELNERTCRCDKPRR


Tests used:
[1] = biological target: VEGFA (UniProt P15692-4 27-191, limits assumed); experiment: method not stated
[2] = biological target: T1, Human VEGF-121 (Acro Biosystems); experiment: competitive ELISA: inhibition of 0.5 nM human VEGF-121 binding to coated VEGFR1 (FIG. 5)
Description: (§1) To perform the competitive ELISA, the VEGFR1 was immobilized at a concentration of 2 μg/mL onto a Maxisorp 96-well plate (Thermo Scientific) overnight at 4° C., washed three times with PBS and blocked for 1 h at RT with ELISA Block Buffer (EBB: 0.2% BSA in PBST). […] The samples were incubated for 2 h at RT, and 50 μL transferred onto the VEGFR1-coated plate. After 2 h incubation, the plate was washed 3 times with PBST. 50 μL of streptavidin-HRP conjugate (Thermo Scientific) was added at a 1:5,000 dilution in EBB, and incubated for 1 h at RT. The plate was washed 5 times with PBST, and developed with 50 μL 3,3′,5,5′-Tetramethylbenzidine (TMB) substrate (GeneTex). After 5-15 min, the reactions were stopped by adding 50 μL of 2M H₂SO₄, and signal was measured at an absorbance of 450 nm.

[3] = biological target: T3, Biotinylated human VEGF-165 (Acro Biosystem) (human, UniProt P15692 207-395, biotinylated (site not stated)); experiment: BLI, biotinylated VEGF on streptavidin tips, 1:1 global fit
T3 construct: Bought protein; also called human VEGFA
Description: (§2) Binding characterization was performed using BLI (Satorius) at RT with a 1000 rpm flow-rate. Biotinylated human VEGF-165 (Acro Biosystem) was immobilized onto Streptavidin-coated tips at a concentration of 3 μg/mL for 60 sec in BLI buffer (0.1% BSA and 0.01% Tween-20 in PBS). After a 30 sec baseline, anti-VEGFA DotBodies were associated at 8 different concentrations, including a blank reference, in BLI buffer for 60 sec, followed by a 400 sec dissociation in BLI buffer. The background buffer signal was subtracted using the 0 nM concentration reference, and the kinetics of binding were calculated using a global fit following a 1:1 binding model, using BLI Analysis Software. The bivalent molecule 16A2.1×2 was also characterized as described here, but with a 600 sec dissociation. To characterize the binding of all the clones against murine VEGFA, the same procedure was employed, but the immobilized target was replaced with biotinylated murine VEGF-164 (Acro Biosystem).

[4] = biological target: T2, biotinylated murine VEGF-164 (Acro …); experiment: as above
Description: as §2

[5] = biological target: T1, Human VEGF-121 (Acro Biosystems); experiment: competitive ELISA: inhibition of 0.5 nM human VEGF-121 binding to coated VEGFR1 (FIG. 4)
Description: as §1

Kd [1]	IC50 [2]	Kd [3]	koff [3]	kon [3]	Kd [4]	koff [4]	kon [4]	IC50 [5]	Binder
< 5 nM	1.8 nM	3 nM	0.00032 s⁻¹	106000 M⁻¹ s⁻¹	14.6 nM	0.00173 s⁻¹	118000 M⁻¹ s⁻¹	2.3 nM	anti-VEGFA DotBody 16C2.1 (VHH, Humanized, stabilized autonomous VH domain (single domain antibody, 'DotBody') derived from the trastuzumab VH) VHH: EVQLVESGGGLVQPGGSLRLSCAISGFSLAATDIDWVRQAPGKGLEWVARIFSPSDFTDYADSVKGRFTISADTSKNTVYLQMNSLRAEDTAVYYCGRPDTYAYNIFLDTPTYNALHYRGQGTLVTVSS
–	12.8 nM	3.37 nM	0.000363 s⁻¹	105000 M⁻¹ s⁻¹	15.3 nM	0.00128 s⁻¹	83600 M⁻¹ s⁻¹	–	anti-VEGFA DotBody 21A5.1 (VHH) VHH: EVQLVESGGGLVQPGGSLRLSCAISGFSLVETDIDWVRQAPGKGLEWVARIFLPSGSTYYADSVKGRFTISADTSKNTVYLQMNSLRAEDTAVYYCGSPDTYAYNIFLDTPAYKGLSYRGQGTLVTVSS
